Columns and labels:
CD8+ T cells = assay: In vitro T-cell priming assay (aAPCs loaded with peptide/MHC and anti-CD28), pMHC multimer readout; format: cell-based, human; details: in vitro immunogenicity of HLA class I peptides; peptide specific pMHC multimer staining after three stimulation cycles
From the text: In order to obtain information regarding the immunogenicity of the TUMAPs of the present invention, the inventors performed investigations using an in vitro T-cell priming assay based on repeated stimulations of CD8+ T cells with artificial antigen presenting cells (aAPCs) loaded with peptide/MHC complexes and anti-CD28 antibody.
In order to perform in vitro stimulations by artificial antigen presenting cells loaded with peptide-MHC complex (pMHC) and anti-CD28 antibody, the inventors first isolated CD8+ T cells from fresh HLA-A*02 leukapheresis products via positive selection using CD8 microbeads (Miltenyi Biotec, Bergisch-Gladbach, Germany) of healthy donors obtained from the University clinics Mannheim, Germany, after informed consent.
PBMCs and isolated CD8+ lymphocytes were incubated in T-cell medium (TCM) until use consisting of RPMI-Glutamax (Invitrogen, Karlsruhe, Germany) supplemented with 10% heat inactivated human AB serum (PAN-Biotech, Aidenbach, Germany), 100 U/ml Penicillin/100 μg/ml Streptomycin (Cambrex, Cologne, Germany), 1 mM sodium pyruvate (CC Pro, Oberdorla, Germany), 20 μg/ml Gentamycin (Cambrex). 2.5 ng/ml IL7 (PromoCell, Heidelberg, Germany) and 10 U/ml IL-2 (Novartis Pharma, Nurnberg, Germany) were also added to the TCM at this step.
Generation of pMHC/anti-CD28 coated beads, T-cell stimulations and readout was performed in a highly defined in vitro system using four different pMHC molecules per stimulation condition and 8 different pMHC molecules per readout condition.
The purified co-stimulatory mouse IgG2a anti human CD28 Ab 9.3 (Jung et al., 1987) was chemically biotinylated using Sulfo-N-hydroxysuccinimidobiotin as recommended by the manufacturer (Perbio, Bonn, Germany). Beads used were 5.6 μm diameter streptavidin coated polystyrene particles (Bangs Laboratories, Illinois, USA).
pMHC used for positive and negative control stimulations were A*0201/MLA-001 (peptide […] (SEQ ID NO. 303) from modified Melan-A/MART-1) and A*0201/DDX5-001 ([…] from DDX5, SEQ ID NO. 304), respectively.
800.000 beads/200 μl were coated in 96-well plates in the presence of 4×12.5 ng different biotin-pMHC, washed and 600 ng biotin anti-CD28 were added subsequently in a volume of 200 μl. Stimulations were initiated in 96-well plates by co-incubating 1×10^6 CD8+ T cells with 2×10^5 washed coated beads in 200 μl TCM supplemented with 5 ng/ml IL-12 (PromoCell) for 3 days at 37° C. Half of the medium was then exchanged by fresh TCM supplemented with 80 U/ml IL-2 and incubating was continued for 4 days at 37° C. This stimulation cycle was performed for a total of three times. For the pMHC multimer readout using 8 different pMHC molecules per condition, a two-dimensional combinatorial coding approach was used as previously described (Andersen et al., 2012) with minor modifications encompassing coupling to 5 different fluorochromes. Finally, multimeric analyses were performed by staining the cells with Live/dead near IR dye (Invitrogen, Karlsruhe, Germany), CD8-FITC antibody clone SK1 (BD, Heidelberg, Germany) and fluorescent pMHC multimers. For analysis, a BD LSRII SORP cytometer equipped with appropriate lasers and filters was used. Peptide specific cells were calculated as percentage of total CD8+ cells. Evaluation of multimeric analysis was done using the FlowJo software (Tree Star, Oregon, USA). In vitro priming of specific multimer+CD8+ lymphocytes was detected by comparing to negative control stimulations.

HLA-A*02 = HLA-A*02 (Homo sapiens, UniProt P04439, D140Y/D185E/D98H/E176V/E277Q/G131W/G231S/I119V/I121R/I166T/I218V/L300P/N151K/N90K/P208A/P217A/Q86G/Q94H/R138H/R169H); assay: MHC binding assay by UV-ligand exchange and beta2m ELISA (HLA-A*02); details: peptide exchange yield, binding to HLA-A*02; UV-ligand exchange, beta2m ELISA
From the text: Candidate peptides for T cell based therapies according to the present invention were further tested for their MHC binding capacity (affinity). The individual peptide-MHC complexes were produced by UV-ligand exchange, where a UV-sensitive peptide is cleaved upon UV-irradiation, and exchanged with the peptide of interest as analyzed. Only peptide candidates that can effectively bind and stabilize the peptide-receptive MHC molecules prevent dissociation of the MHC complexes. To determine the yield of the exchange reaction, an ELISA was performed based on the detection of the light chain (β2m) of stabilized MHC complexes. The assay was performed as generally described in Rodenko et al. (Rodenko et al., 2006).
96 well MAXISorp plates (NUNC) were coated over night with 2 ug/ml streptavidin in PBS at room temperature, washed 4× and blocked for 1 h at 37° C. in 2% BSA containing blocking buffer. Refolded HLA-A*02:01/MLA-001 monomers served as standards, covering the range of 15-500 ng/ml. Peptide-MHC monomers of the UV-exchange reaction were diluted 100 fold in blocking buffer. Samples were incubated for 1 h at 37° C., washed four times, incubated with 2 ug/ml HRP conjugated anti-β2m for 1 h at 37° C., washed again and detected with TMB solution that is stopped with […]. Absorption was measured at 450 nm. Candidate peptides that show a high exchange yield (preferably higher than 50%, most preferred higher than 75%) are generally preferred for a generation and production of antibodies or fragments thereof, and/or T cell receptors or fragments thereof, as they show sufficient avidity to the MHC molecules and prevent dissociation of the MHC complexes.

| Substance | Peptide exchange (HLA-A*02) | Wells positive [%] (CD8+ T cells) |
| --- | --- | --- |
| 4 (KLMPGTYTL; listed as Homo sapiens) [compound 4] | ++++ (> = 75% = ++++) | + (<20% = +) |
| 12 (GLLPLLHRA; listed as Homo sapiens) [compound 12] | ++++ (> = 75% = ++++) | ++++ (> = 70% = ++++) |
| 245 (SLLDLPLSL; listed as Homo sapiens) [compound 245] | ++++ (> = 75% = ++++) |  |
| 248 (YLDRFLAGV; listed as Homo sapiens) [compound 248] | ++++ (> = 75% = ++++) |  |

Continued, in another order:

| Peptide exchange (HLA-A*02) | Substance | Wells positive [%] (CD8+ T cells) |
| --- | --- | --- |
| ++++ (> = 75% = ++++) | 249 (GLCERLVSL; listed as Homo sapiens) [compound 249] | + (<20% = +) |
| ++++ (> = 75% = ++++) | 257 (GLYTDPCGV; listed as Homo sapiens) [compound 257] |  |
| ++++ (> = 75% = ++++) | 258 (LLSERFINV; listed as Homo sapiens) [compound 258] |  |

Reference: US10279022B2, “Peptides and combination of peptides for use in immunotherapy against various cancers” (immatics biotechnologies GmbH, priority 2015, dated 2019)
